In publication PMC4721966:

What was measured:
[1] = biological target: Aureochrome 1a from Phaeodactylum tricornutum, full-length protein (PtAu1a_(full)) (Phaeodactylum tricornutum); test: SEC-MALS; light: pre-incubated at 20°C under continuous blue light (400 µW cm^-2 at 450 nm) for 20 min; 100 µl of 150 µM protein on Superdex 200 10/300 GL in buffer C, RT, column continuously illuminated; monomer-dimer
[2] = biological target: Aureochrome 1a from Phaeodactylum tricornutum, full-length protein (PtAu1a_(full)) (Phaeodactylum tricornutum); test: SEC-MALS; dark: pre-incubated at 20°C in the dark for 20 min; 100 µl of 150 µM protein on Superdex 200 10/300 GL in buffer C (20 mM HEPES pH 7.5, 100 mM NaCl, 10 mM MgCl2, 5% glycerol), RT, column kept in the dark; monomer-dimer
[3] = biological target: PtAu1aLOV, LOV domain of PtAu1a containing its N- and C-terminal α-helical extensions A´α and Jα (Phaeodactylum tricornutum); test: MST; dark; Monolith NT.115; 20 nM DY-647-labelled PtAu1aLOV with a 1:2 dilution series of unlabelled PtAu1aLOV; 20 mM HEPES pH 7.5, 100 mM NaCl, 10% glycerol; dimer to monomers
[4] = biological target: PtAu1aLOV, LOV domain of PtAu1a containing its N- and C-terminal α-helical extensions A´α and Jα (Phaeodactylum tricornutum); test: SEC-MALS; light: pre-incubated at 20°C under continuous blue light (400 µW cm^-2 at 450 nm) for 20 min; 100 µl of 150 µM protein on Superdex 200 10/300 GL in buffer C, RT, column continuously illuminated; monomer-dimer
[5] = biological target: PtAu1a_(bZIP-LOV), truncated PtAu1a variant encompassing the bZIP and LOV domain (Phaeodactylum tricornutum); test: as above
[6] = biological target: PtAu1a_(bZIP-LOV), truncated PtAu1a variant encompassing the bZIP and LOV domain (Phaeodactylum tricornutum); test: SEC-MALS; dark: pre-incubated at 20°C in the dark for 20 min; 100 µl of 150 µM protein on Superdex 200 10/300 GL in buffer C (20 mM HEPES pH 7.5, 100 mM NaCl, 10 mM MgCl2, 5% glycerol), RT, column kept in the dark; monomer-dimer
[7] = system: Aureochrome 1a full length (PtAu1afull) (Phaeodactylum tricornutum); test: EMSA; conditions: 10 mM MgCl2, EMSA: 50 nM DNA in buffer C (20 mM HEPES pH 7.5, 100 mM NaCl, 10 mM MgCl2, 5% glycerol) plus 5% glycerol, 20 min at RT, dark or blue light (450 nm), 10% TGE …

Substance: Aureochrome 1a from Phaeodactylum tricornutum, full-length protein (PtAu1a_(full)) (natural protein)
- stoichiometry N [1]: 2
- stoichiometry N [2]: 2

Substance: PtAu1aLOV, LOV domain of PtAu1a containing its N- and C-terminal α-helical extensions A´α and Jα (domain or fragment)
- Kd [3]: 13.6 µM
- stoichiometry N [4]: 2

Substance: PtAu1a_(bZIP-LOV), truncated PtAu1a variant encompassing the bZIP and LOV domain (domain or fragment)
- stoichiometry N [5]: 2
- stoichiometry N [6]: 2

Substance: TGTAGCGTCTGACGTGGTTCCCAC (double strand) [24-bp dsCYC2 promoter probe]
- K half ([7]; continuous blue light, EC50, Hill coefficient 1.65): 90 nM
- K half ([7]; dark, EC50, Hill coefficient 1.35): 860 nM
